Source: paper doi:10.1101/2020.09.01.278291 (bioRxiv, 2020)

Biological target: LRH-1 ligand binding domain (LBD), residues 299-541, His tag cleaved (human, UniProt O00482 299-541)
Assay: crystal structure

Sequence of LRH-1 ligand binding domain (LBD), residues 299-541, His tag cleaved (O00482 299-541): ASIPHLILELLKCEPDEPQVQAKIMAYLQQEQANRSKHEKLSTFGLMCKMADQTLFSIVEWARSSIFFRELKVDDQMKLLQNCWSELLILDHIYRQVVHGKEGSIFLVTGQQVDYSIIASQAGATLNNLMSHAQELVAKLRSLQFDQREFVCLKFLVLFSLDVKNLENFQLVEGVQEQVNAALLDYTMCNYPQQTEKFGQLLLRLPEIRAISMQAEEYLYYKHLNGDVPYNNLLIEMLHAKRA

- binding result: binds
Binder: KENALLRYLLDK [Tif2 peptide (transcriptional intermediary factor 2 coregulator peptide)]
